Sequences and labels used below:
B1: cyno TSLP (ligand, cynomolgus)
chain: YDFTNCDFQKIEADYLRTISKDLITYMSGTKSTDFNNTVSCSNRPHCLTEIQSLTFNPTPRCASLAKEMFARKTKATLALWCPGYSETQINATQAMKKRRKRKVTTNKCLEQVSQLLGLWRRFIRTLLKKQ
notes: Cyno TSLP as used in solution in the KinExA assay; also called Cynomolgus TSLP
B2: Fab 1 (Fab, V domains shown)
VH: QMQLVESGGGVVQPGRSLRLSCAASGFTFRTYGMHWVRQAPGKGLEWVAVIWYDGSNKHYADSVKGRFTITRDNSKNTLNLQMNSLRAEDTAVYYCARAPQWELVHEAFDIWGQGTMVTVSS
VL: SYVLTQPPSVSVAPGQTARITCGGNNLGSKSVHWYQQKPGQAPVLVVYDDSDRPSWIPERFSGSNSGNTATLTISRGEAGDEADYYCQVWDSSSDHVVFGGGTKLTVLG
notes: The claims call it an IgG1 Fab; It was injected as monomerized Fab1 in the Biacore assay; also called anti-TSLP Fab

Assay [1] concerns the target B2. Put plainly: KinExA, cyno TSLP titrated into 1000 pM fixed Fab 1 (filled diamonds); free Fab 1 captured on hu TSLP-coated beads; the midpoint depends on the fixed Fab concentration. The text has this:
(§1) The KinExA methodology has been reviewed (Darling and Brault, 2004).
(§2) The KinExA software was used to calculate the equilibrium dissociation constant (KD).
In general terms: A kinetic exclusion assay measures how much of one partner remains free in solution.

The target of assay [2] is B2. Put plainly: KinExA, cyno TSLP titrated into 40 pM fixed Fab 1 (open squares); free Fab 1 captured on hu TSLP-coated beads; the midpoint depends on the fixed Fab concentration.
Excerpt: as §1, §2

Assay [3] has as its target T1, N-terminally tagged biotinylated cyno TSLP (cynomolgus, UniProt A0A7N9CAT7 29-159, biotinylated (site not stated)).
T1 construct: Captured on a streptavidin C1 chip in the Biacore assay; also called recombinant mammalian cell-expressed cyno TSLP; not shown: N-terminal tag
T1 sequence: B1 chain
Put plainly: SPR, Biacore 8K; biotinylated TSLP on streptavidin C1 chip, Fab1 injected; 1:1 Langmuir model.

For the assay “cyno TSLP”, the target named is B1. Put plainly: KinExA, solution phase; global 1:1 fit to two datasets.
Excerpt: as §1, §2

Two molecules from patent US20240199730A1 (AstraZeneca / MedImmune, published 2024) can be followed below.

On to B1, for which the “IC50 (read off the curve)” value in the assay with Fab 1 [1] was about 0.6 nM; with Fab 1 [2], about 0.04 nM.
For B2, the Kd in assay [3] is 0.0884 nM; in the assay with cyno TSLP it was 0.0136 nM.

A word on the Kd: it is the concentration at which binding is half-saturated. High values mean a looser complex, low ones a tighter complex.
